Results: the supplement of paper PMC7877785
± gives the uncertainty stated by the source.

Test: self-splicing fitness, log relative to wild type (ln ratio); higher = more splicing; Tetrahymena group I intron in knt gene, E. coli kanamycin selection, DiMSum; sequences stand for … in CUCUCU…GGAGGGAAAAGUUAUCAGGCAUGCACCUGGUAGCUAGUCUUUAAACCAAUAGAUUGCAUCGGUUUAAAAGGCAAGACCGUCAAAUUGCGGGAAAGGGGUCAACAGCCGUUCAGUACCAAGUCUCAGGGGAAACUUUGAGAUGGCCUUGCAAAGGGUAUGGUAAUAAGCUGACGGACAUGGUCCUAACCACGCAGCCAAGUCCUAAGUCAACAGAUCUUCUGUUGAUAUGGAUGCAGUUCACAGACUAAAUGUCGGUCGGGGAAGAUGUAUUCUUCUCAUAAGAUAUAGUCGGACCUCUCCUUAAUGGGAGCUAGCGGAUGAAGUGAUGCAACACUGGAGCCGCUGGGAACUAAUUUGUAUGCGAAAGUAUAUUGAUUAGUUUUGGAGUACUCGUGGUCG
Summary of the method: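 The eight P1ex-region nucleotides of an intron in the knt kanamycin-resistance gene on pET-22b(+) were all randomised and the library put into E. coli BL21(DE3). Six replicate transformations were grown overnight at 37°C or 30°C on LB agar with or without 25 μg/mL kanamycin, together with 100 μg/mL carbenicillin, 50 μM IPTG and 0.2% rhamnose. Colonies were pooled and amplicon-sequenced on an Illumina HiSeq 2500. Fitness from DiMSum is the error-weighted combination of wild-type-normalised replicate fold changes, kanamycin over none.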

Sequence	self-splicing fitness (ln) (30 °C)	self-splicing fitness (ln) (37 °C)
GAAGAGCAAUAUUACGACGC	-1.55 ± 0.15	0.291 ± 0.16
GAAGAGCAAUAUUACGAGUG	-4.54 ± 0.41	-2.81 ± 0.24
GAAGAGCAAUAUUACGCAAA	–	-2.69 ± 0.33
GAAGAGCAAUAUUACGCAAG	-3.6 ± 0.39	-2.68 ± 0.36
GAAGAGCAAUAUUACGCAAU	-3.87 ± 0.2	-1.65 ± 0.13
GAAGAGCAAUAUUACGCACC	-0.341 ± 0.2	0.037 ± 0.22
GAAGAGCAAUAUUACGCAGA	-2.65 ± 0.32	-2.73 ± 0.41
GAAGAGCAAUAUUACGCCAA	–	-2.54 ± 0.45
GAAGAGCAAUAUUACGCCCG	-1.59 ± 0.47	–
GAAGAGCAAUAUUACGCCUA	-2.55 ± 0.34	-1.3 ± 0.25
GAAGAGCAAUAUUACGCGAA	-3.32 ± 0.23	-2.94 ± 0.38
GAAGAGCAAUAUUACGCUAG	-4.24 ± 0.37	-1.13 ± 0.21
GAAGAGCAAUAUUACGGAGC	–	-1.64 ± 0.37
GAAGAGCAAUAUUACGGAUU	-2.29 ± 0.15	-1.79 ± 0.19
GAAGAGCAAUAUUACGGCAG	-4.54 ± 0.36	-1.97 ± 0.23
GAAGAGCAAUAUUACGGCUA	-1.5 ± 0.15	-0.512 ± 0.15
GAAGAGCAAUAUUACGGCUU	-0.88 ± 0.14	0.407 ± 0.13
GAAGAGCAAUAUUACGGGAC	-3.76 ± 0.25	-2.3 ± 0.24
GAAGAGCAAUAUUACGUACG	-3.52 ± 0.25	-2.15 ± 0.22
GAAGAGCAAUAUUACGUAGA	-4.54 ± 0.42	-2.21 ± 0.25
GAAGAGCAAUAUUACGUCCU	-2.59 ± 0.48	-0.861 ± 0.29
GAAGAGCAAUAUUACGUUUG	-4.05 ± 0.2	-2.8 ± 0.23
GAAUAGCAAUAUUACGAAAC	-1.62 ± 0.24	-0.632 ± 0.17
GAAUAGCAAUAUUACGAACU	-0.471 ± 0.085	0.508 ± 0.1
GAAUAGCAAUAUUACGAAGA	-2.78 ± 0.33	-1.45 ± 0.25
GAAUAGCAAUAUUACGAAUC	-2.32 ± 0.14	-0.98 ± 0.14

Sequence	self-splicing fitness (ln) (30 °C)	self-splicing fitness (ln) (37 °C)
GAAUAGCAAUAUUACGACUA	-1.42 ± 0.2	-0.533 ± 0.31
GAAUAGCAAUAUUACGAGAG	-2.92 ± 0.2	-3.05 ± 0.28
GAAUAGCAAUAUUACGAGCG	-1.62 ± 0.069	-0.354 ± 0.076
GAAUAGCAAUAUUACGAUGC	-1.02 ± 0.095	-0.245 ± 0.12
GAAUAGCAAUAUUACGCAAA	-3.06 ± 0.38	-1.75 ± 0.27
GAAUAGCAAUAUUACGCAAU	-2.31 ± 0.11	-0.898 ± 0.15
GAAUAGCAAUAUUACGCCAG	-2.58 ± 0.24	-1.69 ± 0.3
GAAUAGCAAUAUUACGCGCG	-0.825 ± 0.1	-0.591 ± 0.13
GAAUAGCAAUAUUACGCUAG	-2.22 ± 0.16	-0.535 ± 0.14
GAAUAGCAAUAUUACGGACC	-0.00208 ± 0.1	0.0435 ± 0.18
GAAUAGCAAUAUUACGGCGA	-1.11 ± 0.11	-0.3 ± 0.11
GAAUAGCAAUAUUACGGCUA	-0.51 ± 0.15	-0.595 ± 0.14
GAAUAGCAAUAUUACGGGAG	–	-3.35 ± 0.33
GAAUAGCAAUAUUACGGGCG	-1.16 ± 0.078	-0.509 ± 0.1
GAAUAGCAAUAUUACGGGUG	-3.74 ± 0.15	-1.03 ± 0.095
GAAUAGCAAUAUUACGUGCA	-0.851 ± 0.083	-0.317 ± 0.11
GAAUAGCAAUAUUACGUUCG	-1.16 ± 0.13	-0.541 ± 0.17
GAAUAGCAAUAUUACGUUUG	-1.61 ± 0.15	-1.05 ± 0.15
GACAAGCAAUAUUACGAAAC	-2.29 ± 0.18	-2.5 ± 0.17
GACAAGCAAUAUUACGAGAC	-2.95 ± 0.27	-2.29 ± 0.27
GACAAGCAAUAUUACGAGGG	-4.27 ± 0.18	-2.81 ± 0.15
GACAAGCAAUAUUACGAUAA	-1.68 ± 0.11	-0.345 ± 0.1
GACAAGCAAUAUUACGAUGA	-0.527 ± 0.078	-0.303 ± 0.085
GACAAGCAAUAUUACGAUGG	-2.52 ± 0.1	-2.14 ± 0.16
GACAAGCAAUAUUACGCACC	-1.43 ± 0.14	-0.635 ± 0.19
GACAAGCAAUAUUACGCGGC	-2.75 ± 0.17	-3.11 ± 0.21

Sequence	self-splicing fitness (ln) (30 °C)	self-splicing fitness (ln) (37 °C)
GACAAGCAAUAUUACGGAGU	-3.03 ± 0.1	-0.954 ± 0.1
GACAAGCAAUAUUACGGCGA	-0.213 ± 0.074	0.21 ± 0.085
GACAAGCAAUAUUACGGCGC	-0.29 ± 0.098	0.11 ± 0.12
GACAAGCAAUAUUACGGGAC	-2.13 ± 0.25	-1.02 ± 0.4
GACAAGCAAUAUUACGUAGA	-2.31 ± 0.092	-0.707 ± 0.097
GACAAGCAAUAUUACGUCAG	-3.3 ± 0.23	-2.21 ± 0.2
GACAAGCAAUAUUACGUGCC	-1.69 ± 0.14	-1.21 ± 0.17
GACAAGCAAUAUUACGUGGC	-4.6 ± 0.32	-1.61 ± 0.11
GACAAGCAAUAUUACGUGUA	-1.56 ± 0.071	-0.227 ± 0.078
GACAAGCAAUAUUACGUUGC	-3.63 ± 0.14	-2.31 ± 0.16
GACCAGCAAUAUUACGAAAG	-2.49 ± 0.1	-2.58 ± 0.18
GACCAGCAAUAUUACGAAGA	-1.44 ± 0.14	-0.589 ± 0.12
GACCAGCAAUAUUACGAAUC	-0.584 ± 0.096	-0.196 ± 0.1
GACCAGCAAUAUUACGAGAA	-1.67 ± 0.15	-1.05 ± 0.15
GACCAGCAAUAUUACGAGAC	-0.715 ± 0.15	-1.49 ± 0.18
GACCAGCAAUAUUACGAGUA	-1.03 ± 0.087	0.128 ± 0.084
GACCAGCAAUAUUACGAUAA	-1.53 ± 0.094	-1.13 ± 0.1
GACCAGCAAUAUUACGAUAG	-1.73 ± 0.074	-1.45 ± 0.11
GACCAGCAAUAUUACGCCUG	-2.16 ± 0.11	-0.614 ± 0.12
GACCAGCAAUAUUACGCGUC	-4.75 ± 0.38	-2.54 ± 0.22
GACCAGCAAUAUUACGCUCA	-0.152 ± 0.059	-0.295 ± 0.079
GACCAGCAAUAUUACGCUCU	-0.6 ± 0.061	0.0283 ± 0.089
GACCAGCAAUAUUACGCUGU	-3.34 ± 0.15	-1.54 ± 0.095
GACCAGCAAUAUUACGGGGG	-1.92 ± 0.08	-1.17 ± 0.089
GACCAGCAAUAUUACGGUAG	-0.241 ± 0.066	0.668 ± 0.085
